Experimental findings from patent US20090192084A1 are described below.

Holding throughout (assay): Flag co-IP, MudPIT MS, MG132
For assay [1], the target named is Cullin 1 (human) (UniProt Q13616).
Assay [2] deals with Praja 2 (human) (UniProt O43164).
For assay [3], the target named is Ubiquitin conjugation factor E4 B, UBE4B (Ufd2ortholog) (human) (UniProt O95155).
In assay [4] the target is BTB and Kelch domain-containing protein 2, KLHL13 (human) (UniProt Q9P2N7).
Assay [5] addresses Bromodomain and WD-repeat domain-containing protein 2, WDR 1 I (human) (UniProt Q9BZH6).
Assay [6] addresses CUL3-interacting protein I. KLHL12 (human) (UniProt Q53G59).
In assay [7] the target is CUL4- and DDB I-associated WDR protein 2, WDR26 (human) (UniProt Q9H7D7).
Assay [8] has as its target Cullin 3 (human) (UniProt Q13618).
The target of assay [9] is Cullin 4B (human) (UniProt Q13620).
For assay [10], the target named is DDB1- and CUL4-associated factor I. VprBP (human) (UniProt Q9Y4B6).
The target in assay [11] is Kelch domain-containing protein 2, KLDC2 (human) (UniProt Q9Y2U9).
The target in assay [12] is Kelch domain-containing protein 3, KLDC3 (human) (UniProt Q9BQ90).
In assay [13] the target is Kelch-like protein 22. KLEIL22 (human) (UniProt Q53GT1).
For assay [14], the target named is RING-box protein 1, RBX1 (human) (UniProt P62877).
Assay [15] concerns the target Galectin-3 binding protein. LG3BP (human) (UniProt Q08380).
The target in assay [16] is RING finger protein 126. RNE126 (human) (UniProt Q9BV68).
The target in assay [17] is UBR1 (human) (UniProt Q8IWV7).

Sequence of Bromodomain and WD-repeat domain-containing protein 2, WDR 1 I (human) (Q9BZH6 whole entry, the tested form may be a part): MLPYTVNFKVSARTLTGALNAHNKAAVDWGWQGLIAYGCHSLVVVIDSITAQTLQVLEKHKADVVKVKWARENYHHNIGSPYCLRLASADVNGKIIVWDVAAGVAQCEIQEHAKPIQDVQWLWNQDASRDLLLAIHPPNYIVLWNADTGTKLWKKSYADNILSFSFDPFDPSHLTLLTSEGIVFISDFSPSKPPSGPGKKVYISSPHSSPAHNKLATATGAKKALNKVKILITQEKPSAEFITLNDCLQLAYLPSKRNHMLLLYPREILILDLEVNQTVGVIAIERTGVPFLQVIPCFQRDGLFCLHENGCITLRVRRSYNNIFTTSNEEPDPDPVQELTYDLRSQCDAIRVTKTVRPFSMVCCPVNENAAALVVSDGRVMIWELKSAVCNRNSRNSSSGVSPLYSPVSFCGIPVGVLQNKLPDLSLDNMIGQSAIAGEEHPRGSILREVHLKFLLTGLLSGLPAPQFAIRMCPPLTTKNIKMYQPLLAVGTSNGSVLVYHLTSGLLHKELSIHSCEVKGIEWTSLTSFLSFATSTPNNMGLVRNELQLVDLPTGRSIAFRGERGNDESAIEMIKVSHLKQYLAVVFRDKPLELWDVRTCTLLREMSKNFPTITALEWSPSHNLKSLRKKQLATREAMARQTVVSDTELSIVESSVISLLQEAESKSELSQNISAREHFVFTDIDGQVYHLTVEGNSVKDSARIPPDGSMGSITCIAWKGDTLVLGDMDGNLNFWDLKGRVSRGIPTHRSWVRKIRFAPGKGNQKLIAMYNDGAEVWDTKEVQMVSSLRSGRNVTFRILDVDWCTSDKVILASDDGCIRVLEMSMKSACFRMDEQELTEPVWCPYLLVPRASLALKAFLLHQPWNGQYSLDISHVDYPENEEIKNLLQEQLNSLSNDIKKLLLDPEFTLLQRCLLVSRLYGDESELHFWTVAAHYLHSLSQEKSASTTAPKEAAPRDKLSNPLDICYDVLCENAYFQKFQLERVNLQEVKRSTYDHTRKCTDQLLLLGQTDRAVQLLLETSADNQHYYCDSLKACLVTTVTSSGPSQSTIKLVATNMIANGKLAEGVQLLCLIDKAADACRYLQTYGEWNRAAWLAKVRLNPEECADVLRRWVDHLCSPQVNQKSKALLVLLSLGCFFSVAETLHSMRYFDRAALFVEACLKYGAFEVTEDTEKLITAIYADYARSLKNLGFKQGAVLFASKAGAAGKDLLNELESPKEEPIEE
Sequence of RING finger protein 126. RNE126 (human) (Q9BV68 2-311 limits assumed): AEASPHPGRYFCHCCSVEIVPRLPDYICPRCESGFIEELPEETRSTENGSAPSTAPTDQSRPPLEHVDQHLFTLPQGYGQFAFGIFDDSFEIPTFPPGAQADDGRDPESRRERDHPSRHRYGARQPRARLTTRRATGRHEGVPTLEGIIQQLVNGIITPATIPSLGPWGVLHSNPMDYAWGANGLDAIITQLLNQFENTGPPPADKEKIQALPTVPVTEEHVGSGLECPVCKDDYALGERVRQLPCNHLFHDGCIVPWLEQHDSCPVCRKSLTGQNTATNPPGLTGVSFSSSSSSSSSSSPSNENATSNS
Sequence of Cullin 1 (human) (Q13616 whole entry): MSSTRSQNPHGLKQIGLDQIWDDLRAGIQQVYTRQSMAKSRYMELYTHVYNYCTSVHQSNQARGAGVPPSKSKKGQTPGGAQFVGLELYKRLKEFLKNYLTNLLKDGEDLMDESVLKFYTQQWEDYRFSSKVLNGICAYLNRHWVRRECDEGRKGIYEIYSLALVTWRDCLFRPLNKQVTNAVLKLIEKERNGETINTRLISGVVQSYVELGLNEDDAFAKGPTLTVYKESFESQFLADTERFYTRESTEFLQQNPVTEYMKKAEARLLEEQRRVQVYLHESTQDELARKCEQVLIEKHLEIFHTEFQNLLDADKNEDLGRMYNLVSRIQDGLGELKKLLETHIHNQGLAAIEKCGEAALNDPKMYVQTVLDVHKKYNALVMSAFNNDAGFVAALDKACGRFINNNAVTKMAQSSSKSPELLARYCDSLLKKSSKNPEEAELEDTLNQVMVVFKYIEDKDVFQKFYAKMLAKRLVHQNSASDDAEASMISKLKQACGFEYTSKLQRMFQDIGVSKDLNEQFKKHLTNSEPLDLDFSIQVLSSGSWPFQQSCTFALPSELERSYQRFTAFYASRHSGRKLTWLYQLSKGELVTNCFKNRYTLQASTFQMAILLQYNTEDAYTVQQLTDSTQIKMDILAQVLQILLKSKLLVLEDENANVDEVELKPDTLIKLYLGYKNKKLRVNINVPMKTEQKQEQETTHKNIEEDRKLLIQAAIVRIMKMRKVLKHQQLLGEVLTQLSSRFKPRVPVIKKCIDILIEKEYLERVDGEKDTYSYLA
Sequence of Kelch domain-containing protein 3, KLDC3 (human) (Q9BQ90 whole entry, the tested form may be a part): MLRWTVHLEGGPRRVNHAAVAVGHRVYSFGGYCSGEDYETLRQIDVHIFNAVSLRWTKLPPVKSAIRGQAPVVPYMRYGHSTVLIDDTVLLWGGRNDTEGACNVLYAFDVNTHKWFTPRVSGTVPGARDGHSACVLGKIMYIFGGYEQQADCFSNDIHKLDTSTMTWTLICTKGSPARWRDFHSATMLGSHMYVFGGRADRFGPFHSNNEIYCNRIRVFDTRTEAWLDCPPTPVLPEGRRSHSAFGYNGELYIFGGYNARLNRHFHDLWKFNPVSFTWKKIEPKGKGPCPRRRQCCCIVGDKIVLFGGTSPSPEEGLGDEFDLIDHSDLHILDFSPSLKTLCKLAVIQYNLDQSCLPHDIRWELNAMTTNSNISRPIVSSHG
Sequence of RING-box protein 1, RBX1 (human) (P62877 whole entry): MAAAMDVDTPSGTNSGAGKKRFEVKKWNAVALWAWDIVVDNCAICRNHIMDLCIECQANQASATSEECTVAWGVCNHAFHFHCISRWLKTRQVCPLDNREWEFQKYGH
Sequence of BTB and Kelch domain-containing protein 2, KLHL13 (human) (Q9P2N7 whole entry, the tested form may be a part): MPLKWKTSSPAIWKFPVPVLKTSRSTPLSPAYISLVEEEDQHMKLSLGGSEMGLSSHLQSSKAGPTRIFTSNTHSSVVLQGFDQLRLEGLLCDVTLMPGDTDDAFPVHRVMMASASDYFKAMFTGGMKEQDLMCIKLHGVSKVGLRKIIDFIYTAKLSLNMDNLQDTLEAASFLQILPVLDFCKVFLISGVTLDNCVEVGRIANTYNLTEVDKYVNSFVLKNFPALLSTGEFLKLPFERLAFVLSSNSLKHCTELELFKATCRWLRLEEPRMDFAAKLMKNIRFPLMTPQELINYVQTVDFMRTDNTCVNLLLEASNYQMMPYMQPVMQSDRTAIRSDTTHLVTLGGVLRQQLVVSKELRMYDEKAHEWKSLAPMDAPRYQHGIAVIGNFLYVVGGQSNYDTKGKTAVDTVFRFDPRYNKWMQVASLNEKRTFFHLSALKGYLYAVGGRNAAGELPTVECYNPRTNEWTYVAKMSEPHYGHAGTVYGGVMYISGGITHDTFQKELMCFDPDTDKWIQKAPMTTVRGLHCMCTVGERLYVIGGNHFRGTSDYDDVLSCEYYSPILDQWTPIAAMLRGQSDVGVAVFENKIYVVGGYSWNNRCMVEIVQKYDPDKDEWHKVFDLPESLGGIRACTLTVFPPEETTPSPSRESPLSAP
Sequence of Praja 2 (human) (O43164 2-708 limits assumed): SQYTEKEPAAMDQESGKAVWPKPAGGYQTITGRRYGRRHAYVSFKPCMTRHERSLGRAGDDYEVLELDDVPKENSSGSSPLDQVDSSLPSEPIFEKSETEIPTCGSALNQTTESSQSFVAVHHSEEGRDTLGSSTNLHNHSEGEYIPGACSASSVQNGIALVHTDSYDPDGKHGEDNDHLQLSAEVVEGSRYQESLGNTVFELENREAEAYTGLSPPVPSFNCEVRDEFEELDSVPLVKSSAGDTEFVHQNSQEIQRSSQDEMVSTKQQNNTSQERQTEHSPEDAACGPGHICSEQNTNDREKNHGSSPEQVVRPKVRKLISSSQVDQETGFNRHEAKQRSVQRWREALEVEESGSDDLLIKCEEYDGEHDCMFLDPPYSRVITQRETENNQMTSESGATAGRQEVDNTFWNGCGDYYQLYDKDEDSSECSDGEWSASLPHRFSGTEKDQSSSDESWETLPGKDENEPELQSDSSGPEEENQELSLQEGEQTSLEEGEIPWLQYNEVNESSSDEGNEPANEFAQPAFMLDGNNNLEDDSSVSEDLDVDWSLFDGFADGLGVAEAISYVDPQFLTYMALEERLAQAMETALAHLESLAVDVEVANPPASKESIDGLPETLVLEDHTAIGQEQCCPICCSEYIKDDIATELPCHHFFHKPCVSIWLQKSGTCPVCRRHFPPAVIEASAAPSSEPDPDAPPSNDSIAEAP
Sequence of Kelch domain-containing protein 2, KLDC2 (human) (Q9Y2U9 whole entry, the tested form may be a part): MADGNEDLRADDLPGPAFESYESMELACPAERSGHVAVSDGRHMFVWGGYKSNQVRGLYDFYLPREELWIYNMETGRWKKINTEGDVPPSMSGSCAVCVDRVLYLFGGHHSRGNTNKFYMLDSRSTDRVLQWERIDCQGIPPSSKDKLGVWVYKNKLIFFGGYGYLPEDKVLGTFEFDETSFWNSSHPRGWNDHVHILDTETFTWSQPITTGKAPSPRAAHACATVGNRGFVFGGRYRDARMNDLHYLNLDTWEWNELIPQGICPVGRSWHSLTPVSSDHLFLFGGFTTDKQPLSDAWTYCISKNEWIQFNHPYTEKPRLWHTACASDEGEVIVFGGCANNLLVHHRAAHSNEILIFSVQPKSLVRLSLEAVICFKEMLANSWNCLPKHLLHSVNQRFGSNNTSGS

As to Flag-SAKS1 (from UniProt Q04323 1-297), in assay [1], the abundance factor (AF) is 1.5, the sequence count was determined as 2 and the spectrum count worked out at 3. For the same substance, in [2], the abundance factor (AF) is 1.1, the sequence count came out at 2 and the spectrum count turned out to be 2. In assay [3], this substance came in with an abundance factor (AF) of 1.5, a sequence count of 5 and a spectrum count of 5.
Flag-UBXD7 (from UniProt O94888 1-489): the abundance factor (AF) amounted to 1.4 in [4]; 1.3 in assay [5]; 1.2 in assay [6]; 7.2 in assay [7]; 8.4 in assay [8]; 2.7 in [9]. For the same substance, the abundance factor (AF) in assay [10] is 0.6; in assay [11], 3.2; in assay [12], 1.7; in [13], 2.8; in assay [14], 4.1. In addition, the sequence count was determined as 4 in assay [4]; 5 in [5]; 3 in assay [6]; 9 in assay [7]; 16 in assay [8]; 10 in assay [9]. The sequence count worked out at 3 in [10]; 4 in assay [11]; 3 in assay [12]; 8 in assay [13]; 2 in assay [14]. For the same substance, the spectrum count came to 4 in assay [4]; 7 in assay [5]; 3 in assay [6]; 17 in [7]; 30 in [8]; 11 in assay [9]. In addition, the spectrum count amounted to 4 in assay [10]; 6 in [11]; 3 in assay [12]; 8 in assay [13]; 2 in [14].
In assay [15], Flag-UBXD8 (from UniProt Q96CS3 1-445) yielded an abundance factor (AF) of 1.1 and a spectrum count of 3. In assay [16], the abundance factor (AF) amounted to 1.4, the sequence count came to 2 and the spectrum count turned out to be 2. In assay [17], the abundance factor (AF) amounted to 0.4, the sequence count amounted to 3 and the spectrum count was found to be 3.
